# Data as given in patent US20180360932A1 (OPKO BIOLOGICS, published 2018).
# How the values were obtained:
# [1] = biological target: MOD-5014 (FVIIa-CTP3, activated Factor VII-CTP-CTP-CTP) (human) (UniProt P08709); assay: cell-based or functional assay
# [2] = biological target: NovoSeven (commercial recombinant human FVIIa) (human) (UniProt P08709); assay: cell-based or functional assay
substance,measurement,setting,value
Anti thrombin III (ATIII) (from UniProt P01008 33-464),"% Inhibition of clotting activity, AT 1.050 ng/mL",[1],25%
same,"% Inhibition of clotting activity, AT 10.5 ng/mL",[1],28%
same,"% Inhibition of clotting activity, AT 105 ng/mL",[1],25%
same,"% Inhibition of clotting activity, AT 10,500 ng/mL",[1],25%
same,"% Inhibition of clotting activity, AT 105000 ng/mL",[1],62%
same,"% Inhibition of clotting activity, AT 525000 ng/mL",[1],100%
same,"Activity (mU/mL), clotting assay, AT 0 ng/mL (no inhibitor)",[1],70.8 mU/mL
same,"Activity (mU/mL), clotting assay, AT 1.050 ng/mL",[1],52.9 mU/mL
same,"Activity (mU/mL), clotting assay, AT 10.5 ng/mL",[1],50.7 mU/mL
same,"Activity (mU/mL), clotting assay, AT 105 ng/mL",[1],53.3 mU/mL
same,"Activity (mU/mL), clotting assay, AT 1,050 ng/mL",[1],53.4 mU/mL
same,"Activity (mU/mL), clotting assay, AT 10,500 ng/mL",[1],53 mU/mL
same,"Activity (mU/mL), clotting assay, AT 105000 ng/mL",[1],27 mU/mL
same,"Activity (mU/mL), clotting assay, AT 525000 ng/mL",[1],0 mU/mL
same,"O.D, FX activation by MOD-5014 (0.7 ng/ml), AT 0.16 µg/ml",[1],1.18 O.D
same,"O.D, FX activation by MOD-5014 (0.7 ng/ml), AT 0.8 µg/ml",[1],1.07 O.D
same,"O.D, FX activation by MOD-5014 (0.7 ng/ml), AT 4 µg/ml",[1],1.14 O.D
same,"O.D, FX activation by MOD-5014 (0.7 ng/ml), AT 20 µg/ml",[1],1.11 O.D
same,"O.D, FX activation by MOD-5014 (0.7 ng/ml), AT 100 µg/ml",[1],0.974 O.D
same,"O.D, FX activation by MOD-5014 (0.7 ng/ml), AT 500 µg/ml",[1],0.975 O.D
same,"O.D, FX activation by MOD-5014 (0.7 ng/ml), AT 1680 µg/ml",[1],0.656 O.D
same,"O.D, FX activation by MOD-5014 (0.7 ng/ml), control (no AT)",[1],1.09 O.D
same,"O.D., FX activation by MOD-5014 (0.7 ng/ml) with 1 U/µl heparin, AT 0.032 µg/ml",[1],1.24 O.D.
same,"O.D., FX activation by MOD-5014 (0.7 ng/ml) with 1 U/µl heparin, AT 0.16 µg/ml",[1],1.24 O.D.
same,"O.D., FX activation by MOD-5014 (0.7 ng/ml) with 1 U/µl heparin, AT 0.8 µg/ml",[1],1.25 O.D.
same,"O.D., FX activation by MOD-5014 (0.7 ng/ml) with 1 U/µl heparin, AT 4 µg/ml",[1],1.26 O.D.
same,"O.D., FX activation by MOD-5014 (0.7 ng/ml) with 1 U/µl heparin, AT 20 µg/ml",[1],1.08 O.D.
same,"O.D., FX activation by MOD-5014 (0.7 ng/ml) with 1 U/µl heparin, AT 100 µg/ml",[1],0.404 O.D.
same,"O.D., FX activation by MOD-5014 (0.7 ng/ml) with 1 U/µl heparin, AT 500 µg/ml",[1],0.153 O.D.
same,"O.D., FX activation by MOD-5014 (0.7 ng/ml) with 1 U/µl heparin, AT 1680 µg/ml",[1],0.197 O.D.
same,"O.D., FX activation by MOD-5014 (0.7 ng/ml), AT III constant 20 µg/ml, heparin 0.002 U/µl",[1],1.29 O.D.
same,"O.D., FX activation by MOD-5014 (0.7 ng/ml), AT III constant 20 µg/ml, heparin 0.01 U/µl",[1],1.14 O.D.
same,"O.D., FX activation by MOD-5014 (0.7 ng/ml), AT III constant 20 µg/ml, heparin 0.25 U/µl",[1],0.917 O.D.
same,"O.D., FX activation by MOD-5014 (0.7 ng/ml), AT III constant 20 µg/ml, heparin 1.25 U/µl",[1],0.896 O.D.
same,"O.D., FX activation by MOD-5014 (0.7 ng/ml), AT III constant 20 µg/ml, heparin 6.25 U/µl",[1],1.02 O.D.
same,"O.D., FX activation by MOD-5014 (0.7 ng/ml), Control",[1],1.41 O.D.
same,"% Inhibition of clotting activity, AT 1.050 ng/mL",[2],21%
same,"% Inhibition of clotting activity, AT 105 ng/mL",[2],20%
same,"% Inhibition of clotting activity, AT 10,500 ng/mL",[2],30%
same,"% Inhibition of clotting activity, AT 525000 ng/mL",[2],100%
same,"Activity (mU/mL), clotting assay, AT 0 ng/mL (no inhibitor)",[2],88.1 mU/mL
same,"Activity (mU/mL), clotting assay, AT 1.050 ng/mL",[2],69.5 mU/mL
same,"Activity (mU/mL), clotting assay, AT 10.5 ng/mL",[2],68.4 mU/mL
same,"Activity (mU/mL), clotting assay, AT 105 ng/mL",[2],70.2 mU/mL
same,"Activity (mU/mL), clotting assay, AT 1,050 ng/mL",[2],66.8 mU/mL
same,"Activity (mU/mL), clotting assay, AT 10,500 ng/mL",[2],61.5 mU/mL
same,"Activity (mU/mL), clotting assay, AT 105000 ng/mL",[2],30.6 mU/mL
same,"Activity (mU/mL), clotting assay, AT 525000 ng/mL",[2],0 mU/mL
same,"O.D, FX activation by NovoSeven (0.7 ng/ml), AT 0.16 µg/ml",[2],1.23 O.D
same,"O.D, FX activation by NovoSeven (0.7 ng/ml), AT 4 µg/ml",[2],1.17 O.D
same,"O.D, FX activation by NovoSeven (0.7 ng/ml), AT 20 µg/ml",[2],1.15 O.D
same,"O.D, FX activation by NovoSeven (0.7 ng/ml), AT 100 µg/ml",[2],1.14 O.D
same,"O.D, FX activation by NovoSeven (0.7 ng/ml), AT 500 µg/ml",[2],0.933 O.D
same,"O.D, FX activation by NovoSeven (0.7 ng/ml), AT 1680 µg/ml",[2],0.784 O.D
same,"O.D, FX activation by NovoSeven (0.7 ng/ml), control (no AT)",[2],1.28 O.D
same,"O.D., FX activation by NovoSeven (0.7 ng/ml) with 1 U/µl heparin, AT 0.032 µg/ml",[2],1.16 O.D.
same,"O.D., FX activation by NovoSeven (0.7 ng/ml) with 1 U/µl heparin, AT 0.16 µg/ml",[2],1.19 O.D.
same,"O.D., FX activation by NovoSeven (0.7 ng/ml) with 1 U/µl heparin, AT 0.8 µg/ml",[2],1.22 O.D.
same,"O.D., FX activation by NovoSeven (0.7 ng/ml) with 1 U/µl heparin, AT 4 µg/ml",[2],1.17 O.D.
same,"O.D., FX activation by NovoSeven (0.7 ng/ml) with 1 U/µl heparin, AT 20 µg/ml",[2],1.04 O.D.
same,"O.D., FX activation by NovoSeven (0.7 ng/ml) with 1 U/µl heparin, AT 100 µg/ml",[2],0.503 O.D.
same,"O.D., FX activation by NovoSeven (0.7 ng/ml) with 1 U/µl heparin, AT 500 µg/ml",[2],0.201 O.D.
same,"O.D., FX activation by NovoSeven (0.7 ng/ml) with 1 U/µl heparin, AT 1680 µg/ml",[2],0.141 O.D.
same,"O.D., FX activation by NovoSeven (0.7 ng/ml), AT III constant 20 µg/ml, heparin 0.002 U/µl",[2],1.24 O.D.
same,"O.D., FX activation by NovoSeven (0.7 ng/ml), AT III constant 20 µg/ml, heparin 0.01 U/µl",[2],1.2 O.D.
same,"O.D., FX activation by NovoSeven (0.7 ng/ml), AT III constant 20 µg/ml, heparin 0.25 U/µl",[2],1.04 O.D.
same,"O.D., FX activation by NovoSeven (0.7 ng/ml), AT III constant 20 µg/ml, heparin 1.25 U/µl",[2],0.98 O.D.
same,"O.D., FX activation by NovoSeven (0.7 ng/ml), AT III constant 20 µg/ml, heparin 6.25 U/µl",[2],1 O.D.
same,"O.D., FX activation by NovoSeven (0.7 ng/ml), Control",[2],1.43 O.D.
